Measured values taken from article PMC4254994 (PLoS ONE, 2014).

Target: the molecule itself
Assay: SEC

B1: Bacterial proteasome activator Bpa (Rv3780) of Mycobacterium tuberculosis (natural protein)
chain: MVIGLSTGSDDDDVEVIGGVDPRLIAVQENDSDESSLTDLVEQPAKVMRIGTMIKQLLEEVRAAPLDEASRNRLRDIHATSIRELEDGLAPELREELDRLTLPFNEDAVPSDAELRIAQAQLVGWLEGLFHGIQTALFAQQMAARAQLQQMRQGALPPGVGKSGQHGHGTGQYL
With B1 the “stoichiometry N” value was roughly 6.
